In patent US20170112908A1 one finds % Competition compared to the related control group data, which are given here for 59 molecules.

The experiment addresses polyclonal antibodies in mouse sera specific for human PCSK9 aa 153-162 or aa 153-165. Kind of experiment: competition ELISA, 20 ug peptide with sera, plate coated with m2 (competitor). A general note: An ELISA detects its analyte on a solid surface through an enzyme-linked reagent.
SQPWSLERTL showed a % Competition compared to the related control group of 53%.

For the molecule VIPWNLERIQ, the % Competition compared to the related control group stood at 47%.

Consider SIPWNLARIT, for which the % Competition compared to the related control group is 13%.

As to SIPWNDERIT, the % Competition compared to the related control group worked out at 71%.

Regarding SIPSNLERIT, the % Competition compared to the related control group amounted to 7%.

Molecule SIPDNLERIT yielded a % Competition compared to the related control group of 3%.

Turning to SIPWNFERITPPR, the % Competition compared to the related control group turned out to be 79%.

Turning to SIPWNLERIA, the % Competition compared to the related control group is 80%.

SIPWNLERITPVR showed a % Competition compared to the related control group of 75%.

In the case of SIPWNLERITPPK, the % Competition compared to the related control group worked out at 66%.

On to SIPWNLERISPPR, for which the % Competition compared to the related control group came out at 79%.

Consider SIPWNVERITPPR, for which the % Competition compared to the related control group worked out at 78%.

On to SIPWNLERITPAR, for which the % Competition compared to the related control group was 74%.

VIPWNLERIT returned a % Competition compared to the related control group of 51%.

Molecule SVPWNLEKLT gave a % Competition compared to the related control group of 11%.

Molecule SGPWNLERITPPR had a % Competition compared to the related control group of 54%.

In turn, SIPANLERIT registered a % Competition compared to the related control group of 8%.

Turning to SIPWNAERIT, the % Competition compared to the related control group was found to be 73%.

SIPWNLERAT registered a % Competition compared to the related control group of 77%.

Consider TIPWNLERIT, for which the % Competition compared to the related control group stood at 52%.

In turn, SVPWNLERTT displayed a % Competition compared to the related control group of 73%.

Consider ERTKSDPGAQHREF, for which the % Competition compared to the related control group amounted to 0%.

In the case of SVPWNLERIT, the % Competition compared to the related control group worked out at 62%.

With SIPWSLERIT, the % Competition compared to the related control group was 73%.

Consider AIPWNLERIT, for which the % Competition compared to the related control group turned out to be 88%.

VIPWNLERIL: the % Competition compared to the related control group came out at 49%.

As to SIPWNGERIT, the % Competition compared to the related control group came to 52%.

On to SIPWDLERITPPR, for which the % Competition compared to the related control group came out at 74%.

SIPWNLERITPPA came in with a % Competition compared to the related control group of 65%.

In turn, SIPWNLDRITPPR registered a % Competition compared to the related control group of 53%.

Take SQPWNLERLT: the % Competition compared to the related control group is 69%.

On to SVPWSLERLT, for which the % Competition compared to the related control group amounted to 74%.

Turning to SITWNLERIT, the % Competition compared to the related control group was 62%.

SIVWNLERITPPR registered a % Competition compared to the related control group of 78%.

SIPWNLERITPTR gave a % Competition compared to the related control group of 73%.

SIAWNLERIT returned a % Competition compared to the related control group of 78%.

On to SIPWNLERITPNR, for which the % Competition compared to the related control group came to 70%.

As to VQPWSLERTL, the % Competition compared to the related control group came to 48%.

For SVPWNLERIL, the % Competition compared to the related control group is 59%.

Consider VIPWNLERLT, for which the % Competition compared to the related control group is 54%.

In turn, SIPWNLERIL showed a % Competition compared to the related control group of 56%.

SIPWNLERITPPL: the % Competition compared to the related control group amounted to 66%.

In turn, SQPWNLERIL had a % Competition compared to the related control group of 69%.

On to SIPHNLERIT, for which the % Competition compared to the related control group came out at 0%.

Consider SIPWNLERITPPS, for which the % Competition compared to the related control group was 66%.

In turn, SIPWNLERTT came in with a % Competition compared to the related control group of 73%.

SVPWNLERLT: the % Competition compared to the related control group was determined as 57%.

As for SIPWNLEDIT, the % Competition compared to the related control group was determined as 13%.

In turn, SIPWALERIT yielded a % Competition compared to the related control group of 75%.

On to ITELSRWPNI, for which the % Competition compared to the related control group amounted to 0%.

Molecule SQPWNLERIQ showed a % Competition compared to the related control group of 66%.

In turn, SIPGNLERIT gave a % Competition compared to the related control group of 0%.

With SIPWNLERITAPR, the % Competition compared to the related control group was found to be 70%.

VQPWSLERLL: the % Competition compared to the related control group was 66%.

Molecule VIPWNLERTT gave a % Competition compared to the related control group of 69%.

On to SVPWNLERIQ, for which the % Competition compared to the related control group is 61%.

SQPWNLERIT came in with a % Competition compared to the related control group of 30%.

SIPWQLERITPPR had a % Competition compared to the related control group of 79%.

As to SIPWSLERIQ, the % Competition compared to the related control group turned out to be 44%.
